The results in this text go back to patent US20210230288A1.

Experiment [1] deals with IgG Fc (control). Put plainly: phage ELISA on control (IgG Fc), lower end. For orientation: In an ELISA, binding on a coated surface is turned into a signal by an enzyme label.
Experiment [2] deals with IgG Fc (control). Kind of experiment: phage ELISA on control (IgG Fc), 89 identical clones.
Experiment [3] concerns the target IgG Fc (control). Put plainly: phage ELISA on control (IgG Fc), upper end.

B1: bb10 (SEQ ID NO 19), phage clone (designed binder)
chain: MGSWAEFKQRLAAIKTRLEALGGSEAELAAFLGEIWAFEMELAAYKGKGNPEVEALGREAAAIRMELQAYRHN
Consider B1, for which the ELISA absorbance in experiment [1] worked out at 0.056 OD; in experiment [2], 0.067 OD; in experiment [3], 0.125 OD.
